Like-named read-outs stand apart in the source and are kept apart here.
Key:
[1] = in rats; cited from earlier work
Description: The intrinsic qualities needed to develop a good in vivo contrast agent are high molecular selectivity so as to label only the selected target, a high affinity, so that a low dose of the tracer can be injected, quick blood elimination to reduce background noise and long-term residence in the targeted organ. […] As a peptide, MQ1 is simple to engineer. […] We exemplified this statement by generating the first PET agent specific to V2R and two highly efficient spe ...

[2] = test system: porcine kidney epithelial cells LLC-pk1; assay: Confocal imaging of endogenous V2R in LLC-pk1 cells; format: cell-based; conditions: 1 µM, 30-min pre-incubation
Protocol: In cells endogenously expressing V2R, such as porcine kidney epithelial cells LLC-pk1, labeling of V2R with AFDye-488-MQ1 and Cy5.5-MQ1 (100 nM) was performed with either fresh or PFA-fixed cells (Figures 7A and B). […] In the pathophysiological context, three renal cancer cell lines (CAKI-2, ACHN and A498 [38]) known to express V2R were tested. […] The presence of V2R, at the cell membrane level, fluctuated as a function of cell density and the number of cell divisions, whatever the cell line used. […] To our knowledge, this is the first specific ligand labeling of V2R in non-permeabilized cancer cells.
Freshly dissociated CHO, LLC-PK1 or renal cancer cell lines expressing vasopressin receptors were seeded on 12-mm glass coverslips pre-coated with poly-ornithine, cultured for 48 h before incubation in DMEM, 0.2 mg/mL BSA, 25 mM HEPES, pH 7.4 for 1 h at 12°C or 30 min at 22 °C with fluorescent analogues in the absence or presence of non-fluorescent ligands (30-min pre-incubation). After 3 washes with cold PBS, the cells were finally fixed in 4% PFA overnight at 4 °C and mounted with Mowiol. The fluorescent cells were imaged using a Zeiss LSM510 Meta confocal microscope equipped with a ×63 (NA 1.4) oil immersion objective. For excitation, available laser rays were 488 and 633 nm and emission signals were collected in multitracking mode with appropriate band pass filters. […]

[3] = cited from earlier work
Protocol: Aprotinin and bikunin are two Kunitz peptides. Aprotinin is used clinically in acute pancreatitis, shock syndromes and hyperfibrinolytic hemorrhage. Bikunin is a protease Kunitz inhibitor that inhibits the invasiveness of tumor cells of various histological origins. Aprotinin [54] and bikunin [55] have similar T1/2α of 0.7 and 0.85 h and T1/2β of 7 and 6.4 h, respectively.

[4] = target: T1, Type 2 vasopressin receptor (V2R) (Rattus norvegicus, UniProt Q00788); assay: [3H]AVP competition radioligand binding
T1 chain: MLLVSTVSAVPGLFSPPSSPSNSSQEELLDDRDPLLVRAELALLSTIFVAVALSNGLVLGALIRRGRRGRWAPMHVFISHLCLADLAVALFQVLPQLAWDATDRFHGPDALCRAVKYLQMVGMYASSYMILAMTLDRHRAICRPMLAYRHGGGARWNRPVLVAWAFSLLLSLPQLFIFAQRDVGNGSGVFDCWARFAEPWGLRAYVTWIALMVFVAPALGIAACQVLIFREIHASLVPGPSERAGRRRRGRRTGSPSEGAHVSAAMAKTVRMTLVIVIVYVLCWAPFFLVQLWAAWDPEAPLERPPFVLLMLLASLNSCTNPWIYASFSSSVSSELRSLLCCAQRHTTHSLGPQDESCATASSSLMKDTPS

## NC(=O)CC[C@@H]1NC(=O)[C@H](Cc2ccccc2)NC(=O)[C@H](Cc2ccc(O)cc2)NC(=O)[C@@H](N)CSSC[C@@H](C(=O)N2CCC[C@H]2C(=O)N[C@@H](CCCN=C(N)N)C(=O)NCC(N)=O)NC(=O)[C@H](CC(N)=O)NC1=O [AVP, arginine-vasopressin]
[1]
  T1/2α: 0.9 min
  T1/2β: 8 min

## CCOc1ccc2c(c1)C1(CCC(OCCN3CCOCC3)CC1)C(=O)N2S(=O)(=O)c1ccc(C(=O)NC(C)(C)C)cc1OC (centres unmarked) [SR121463, reference compound]
[2]
  effect on labeling by AFDye-488-MQ1 and Cy5.5-MQ1: inhibited the labeling

## Aprotinin [reference compound]
[3]
  T1/2α: 42 min
  T1/2β: 420 min

B1: Mambaquaretin (MQ1) (protein)
chain: RPSFCNLPVKPGPCNGFFSAFYYSQKTNKCHSFTYGGCKGNANRFSTIEKCRRTCVG
[4]
  Ki: 7.7 nM

B2: bikunin: protease Kunitz inhibitor that inhibits the invasiveness of tumor cells (protein, UniProt P02760 206-352, looked up)
Inter-alpha-trypsin inhibitor …: AVLPQEEEGSGGGQLVTEVTKKEDSCQLGYSAGPCMGMTSRYFYNGTSMACETFQYGGCMGNGNNFVTEKECLQTCRTVAACNLPIVRGPCRAFIQLWAFDAVKGKCVLFPYGGCQGNGNKFYSEKECREYCGVPGDGDEELLRFSN
modifications: Inter-alpha-trypsin inhibitor light chain
[3]
  T1/2α: 51 min
  T1/2β: 384 min
